{"source": "patent US20220227840A1"}
{"biological_target": "tissue factor (TF) extracellular domains (UniProt P13726)", "assay": "SPR, TF on chip", "conditions": "not given", "units": {"Kd": "nM"}}
{"substance": "D3H44 Fab H:D146G_Q179K L:Q124E_Q160E_T180E", "Kd": 0.024}
{"substance": "D3H44 Fab H:D146G_Q179R L:Q124E_Q160E_T178D", "Kd": 0.082}
{"substance": "D3H44 Fab H:F174V_P175S_S188G L:S176L", "Kd": 0.04}
{"substance": "D3H44 Fab H:K145T_Q179D_S188F L:V133A_Q160K_T178R", "Kd": 0.086}
{"substance": "D3H44 Fab H:K145T_Q179D_S188L L:Q160K_T178R", "Kd": 0.071}
{"substance": "D3H44 Fab H:L143A_D146G_Q179R L:Q124E_V133W_Q160E_T180E", "Kd": 0.087}
{"substance": "D3H44 Fab H:L143E_K145T L:Q160K_T178R", "Kd": 0.06}
{"substance": "D3H44 Fab H:Q39D_A139G_V190A L:Q38R_L135W", "Kd": 0.025}
{"substance": "D3H44 Fab H:S188L_V190Y L:V133S", "Kd": 0.043}
{"substance": "D3H44 WT Fab with FLAG-tagged light chain", "Kd": 0.0622}
{"substance": "D3H44 WT Fab with HA-tagged light chain", "Kd": 0.0522}
{"biological_target": "tissue factor (TF) extracellular domains (UniProt P13726)", "assay": "not given", "conditions": "Fab", "units": {"Kd": "nM"}}
{"substance": "D3H44 Fab H:V37W L:F98A", "Kd": 0.977}
{"biological_target": "tissue factor (TF) extracellular domains (UniProt P13726)", "assay": "SPR, TF on chip", "conditions": "not given", "remark": "another data set of the same source", "units": {"Kd": "nM"}}
{"substance": "D3H44 Fab H:A139G_V190A L:L135W", "Kd": 0.0586}
{"substance": "D3H44 Fab H:A139I L:F118W_V133S", "Kd": 0.052}
{"substance": "D3H44 Fab H:A139I_K145T_D146G_Q179E_S188G_V190S L:F116A_V133G_S176F_T178A", "Kd": 0.0406}
{"substance": "D3H44 Fab H:D146G_Q179K L:Q124E_Q160E_T178D", "Kd": 0.0525}
{"substance": "D3H44 Fab H:D146G_Q179K L:Q124E_Q160E_T180E", "Kd": 0.0245}
{"substance": "D3H44 Fab H:D146G_Q179K L:Q124E_V133W_Q160E_T180E", "Kd": 0.0828}
{"substance": "D3H44 Fab H:D146G_Q179R L:Q124E_Q160E_T178D", "Kd": 0.0816}
{"substance": "D3H44 Fab H:D146G_Q179R L:Q124E_Q160E_T180E", "Kd": 0.078}
{"substance": "D3H44 Fab H:D146G_Q179R L:Q124E_V133W_Q160E_T180E", "Kd": 0.0631}
{"substance": "D3H44 Fab H:D146G_S186R L:Q124E_Q160E_T178D", "Kd": 0.0511}
{"substance": "D3H44 Fab H:D146G_S186R L:Q124E_Q160E_T180E", "Kd": 0.0671}
{"substance": "D3H44 Fab H:F100M_W103V L:P44W_L89W", "Kd": 1.54}
{"substance": "D3H44 Fab H:F174G_S188A L:WT", "Kd": 0.0792}
{"substance": "D3H44 Fab H:F174V_P175S_S188G L:S176L", "Kd": 0.0399}
{"substance": "D3H44 Fab H:F174V_S188L L:S176G", "Kd": 0.0949}
{"substance": "D3H44 Fab H:F174V_S188L L:V133S", "Kd": 0.0201}
{"substance": "D3H44 Fab H:F174V_S188L L:WT", "Kd": 0.0377}
{"substance": "D3H44 Fab H:F174W_S188L L:S176G", "Kd": 0.0155}
{"substance": "D3H44 Fab H:F174W_S188L L:V133S", "Kd": 0.0172}
{"substance": "D3H44 Fab H:F174W_S188L L:WT", "Kd": 0.0271}
{"substance": "D3H44 Fab H:K145E_D146G_Q179D_S188F L:V133A_Q160K_T178R", "Kd": 0.0219}
{"substance": "D3H44 Fab H:K145E_D146G_Q179D_S188L L:Q160K_T178R", "Kd": 0.0415}
{"substance": "D3H44 Fab H:K145L_Q179E L:S131K", "Kd": 0.066}
{"substance": "D3H44 Fab H:K145T_Q179D_S188F L:Q160K_T178R", "Kd": 0.111}
{"substance": "D3H44 Fab H:K145T_Q179D_S188F L:V133A_Q160K_T178R", "Kd": 0.0856}
{"substance": "D3H44 Fab H:K145T_Q179D_S188L L:Q160K_T178R", "Kd": 0.0705}
{"substance": "D3H44 Fab H:K145T_Q179D_S188L L:V133A_Q160K_T178R", "Kd": 0.0423}
{"substance": "D3H44 Fab H:L45W L:Y87G", "Kd": 0.197}
{"substance": "D3H44 Fab H:L143A_D146G_Q179R L:Q124E_V133W_Q160E_T180E", "Kd": 0.0871}
{"substance": "D3H44 Fab H:L143E_K145T L:Q124R", "Kd": 0.0596}
{"substance": "D3H44 Fab H:L143E_K145T L:Q124R_Q160K_T178R", "Kd": 0.0769}
{"substance": "D3H44 Fab H:L143E_K145T L:Q160K_T178R", "Kd": 0.0236}
{"substance": "D3H44 Fab H:L143K_D146G L:Q124E_V133D", "Kd": 0.0243}
{"substance": "D3H44 Fab H:Q39D L:Q38R_F98W", "Kd": 0.127}
{"substance": "D3H44 Fab H:Q39D_A139G_V190A L:Q38R_L135W", "Kd": 0.117}
{"substance": "D3H44 Fab H:Q39E L:Q38N_T85K", "Kd": 0.0201}
{"substance": "D3H44 Fab H:Q39E L:Q38N_T85K_F98W", "Kd": 0.0348}
{"substance": "D3H44 Fab H:Q39E L:Q38R_F98W", "Kd": 0.163}
{"substance": "D3H44 Fab H:Q39K L:Q38N_T85E", "Kd": 0.0213}
{"substance": "D3H44 Fab H:Q39K L:Q38N_T85E_F98W", "Kd": 0.0134}
{"substance": "D3H44 Fab H:Q39M L:Q38M", "Kd": 0.0273}
{"substance": "D3H44 Fab H:Q39R L:Q38D", "Kd": 0.0229}
{"substance": "D3H44 Fab H:Q39R L:Q38D_F98W", "Kd": 0.127}
{"substance": "D3H44 Fab H:Q39R L:Q38E_F98W", "Kd": 0.178}
{"substance": "D3H44 Fab H:S186K_S188H_V190G L:F118W_Q124E_V133S_S176A_T178S_T180E", "Kd": 0.0615}
{"substance": "D3H44 Fab H:S186R L:Q124E_Q160E_T178D", "Kd": 0.125}
{"substance": "D3H44 Fab H:S188L L:S176G", "Kd": 0.0866}
{"substance": "D3H44 Fab H:S188L L:V133S", "Kd": 0.0144}
{"substance": "D3H44 Fab H:S188L L:WT", "Kd": 0.0342}
{"substance": "D3H44 Fab H:S188L_V190Y L:V133S", "Kd": 0.0428}
{"substance": "D3H44 Fab H:V37A_Q39E_W103V L:Q38N_P44W_T85K", "Kd": 0.55}
{"substance": "D3H44 Fab H:V37A_Q39K_W103H L:Q38N_P44W_T85E", "Kd": 0.832}
{"substance": "D3H44 Fab H:V37A_Q39R_W103V L:Q38E_P44W", "Kd": 0.977}
{"substance": "D3H44 Fab H:V37E L:L89R_F98T", "Kd": 2.41}
{"substance": "D3H44 Fab H:V37I_Q39D L:Q38R_F98W", "Kd": 0.177}
{"substance": "D3H44 Fab H:V37I_Q39E L:Q38N_T85K", "Kd": 0.0182}
{"substance": "D3H44 Fab H:V37I_Q39E L:Q38N_T85K_F98W", "Kd": 0.125}
{"substance": "D3H44 Fab H:V37I_Q39E L:Q38R_F98W", "Kd": 0.0729}
{"substance": "D3H44 Fab H:V37I_Q39R L:Q38D_F98W", "Kd": 0.101}
{"substance": "D3H44 Fab H:V37I_Q39R L:Q38E", "Kd": 0.123}
{"substance": "D3H44 Fab H:V37I_Q39R L:Q38E_F98W", "Kd": 0.144}
{"substance": "D3H44 Fab H:V37I_W103H L:P44W_F98W", "Kd": 0.24}
{"substance": "D3H44 Fab H:V37S_A93K L:F98Y", "Kd": 0.42}
{"substance": "D3H44 Fab H:V37T_A93Q_W103T L:P44W_F98W", "Kd": 1.33}
{"substance": "D3H44 Fab H:V37T_A93Q_W103V L:P44W_F98W", "Kd": 0.192}
{"substance": "D3H44 Fab H:V37W L:F98A", "Kd": 3.44}
{"substance": "D3H44 Fab H:V37W_A93V L:F98A", "Kd": 0.697}
{"substance": "D3H44 Fab H:V37W_F100W_W103L L:F98A", "Kd": 1.22}
{"substance": "D3H44 Fab H:V37W_Q39D L:Q38R_F98A", "Kd": 1.73}
{"substance": "D3H44 Fab H:V37W_Q39D_W103F L:Q38R_F98L", "Kd": 0.924}
{"substance": "D3H44 Fab H:V37W_Q39D_W103H L:Q38R_F98L", "Kd": 7.89}
{"substance": "D3H44 Fab H:V37W_Q39E L:Q38N_T85K_F98A", "Kd": 0.861}
{"substance": "D3H44 Fab H:V37W_Q39E L:Q38R_F98A", "Kd": 0.902}
{"substance": "D3H44 Fab H:V37W_Q39E_W103F L:Q38N_T85K_F98L", "Kd": 2.51}
{"substance": "D3H44 Fab H:V37W_Q39E_W103F L:Q38R_F98L", "Kd": 0.172}
{"substance": "D3H44 Fab H:V37W_Q39K L:Q38N_T85E_F98A", "Kd": 1.78}
{"substance": "D3H44 Fab H:V37W_Q39K_W103F L:Q38N_T85E_F98L", "Kd": 0.984}
{"substance": "D3H44 Fab H:V37W_Q39R L:Q38E_F98A", "Kd": 3.18}
{"substance": "D3H44 Fab H:V37W_Q39R_W103F L:Q38E_F98L", "Kd": 1.11}
{"substance": "D3H44 Fab H:V37W_Q39R_W103H L:Q38D_F98L", "Kd": 5.62}
{"substance": "D3H44 Fab H:V37W_Q39R_W103H L:Q38E_F98L", "Kd": 2.99}
{"substance": "D3H44 Fab H:V37W_W103F L:F98L", "Kd": 0.955}
{"substance": "D3H44 Fab H:W103H L:P44W_F98W", "Kd": 0.212}
{"substance": "D3H44 Fab H:W103H L:P44W_L89W_F98A", "Kd": 3.4}
{"substance": "D3H44 Fab H:W103V L:P44W_F98W", "Kd": 0.174}
{"substance": "D3H44 Fab H:W103V L:P44W_L89W_F98A", "Kd": 4.12}
{"substance": "D3H44 Fab H:WT L:F98W", "Kd": 0.0109}
{"substance": "D3H44 Fab H:WT L:L89F_F98W", "Kd": 0.239}
{"substance": "Wild-type anti-TF D3H44 Fab", "Kd": 0.056}
